This is an account of results in patent publication US20120100207A1, “PROCESS FOR PRODUCING LIPOSOMES BY TWO-STEP EMULSIFICATION METHOD UTILIZING OUTER AQUEOUS PHASE CONTAINING SPECIFIC DISPERSING AGENT, PROCESS FOR PRODUCING LIPOSOME DISPERSION OR DRY POWDER THEREOF USING THE PROCESS FOR PRODUCING LIPOSOMES, AND LIPOSOME DISPERSION OR DRY POWDER THEREOF PRODUCED …” (KONICA MINOLTA HOLDINGS, INC., priority 2009, published 2012).

Series [1] in a line: Volume mean particle diameter by dynamic light scattering particle size analyzer. In kind it is physicochemical. As for the experimental part:
The volume mean particle diameter of liposomes in the examplesandthecomparativeexamplesdescribedbelowwasmeasured by the following method.
The W1/O emulsion was diluted with a chloroform/hexane mixed solvent (volume ratio: 4/6, the specific gravity was made equal to that of the inner aqueous phase) to 10 times, then a particle size distribution was measured with a dynamic light scattering nanotrack particle size analyzer (UPA-EX150, manufactured by Nikkiso Co., Ltd.), and based on this particle size distribution, a volume mean particle diameter was calculated.
As for the volume mean particle diameter of the specific dispersing agent which forms molecular aggregates, a liposome dispersion (also referred to as a “suspension” hereinafter) prepared in each of the following examples was subjected to the measurement as it was, using the same device. That is to say, a suspension of liposome particles prepared was diluted with a phosphoric acid buffer saline solution (PBS) to 25 times, then a particle size distribution was measured using a dynamic light scattering nanotrack particle size analyzer (UPA-EX150, manufactured by Nikkiso Co., Ltd.), and based on this particle size distribution, a volume mean particle diameter was calculated.

The conditions of series [2]: in an aqueous solvent; background statement; cited from earlier work.

For sodium caseinate, the “particle size distribution of associated substance of molecular aggregates” value in series [1] (solution containing only casein having a higher concentration) is reported as 150 nm. For the same substance, the “main particle size distribution (volume mean particle diameter)” value in series [1] (solution containing only the dispersing agent) was determined as 15 nm. Besides, in series [2], the “volume mean particle diameter of molecular aggregates (submicelles)” value is given as “about 15 nm” and the “volume mean particle diameter of particles of associated molecular aggregates” value is recorded as 100 to 200 nm.
